Measured values reported in IntAct's records for PubMed 17030804.

B1: Rab11 family-interacting protein 3 (Homo sapiens), O75154-1 (parent)
chain: MASAPPASPPGSEPPGPDPEPGGPDGPGAAQLAPGPAELRLGAPVGGPDPQSPGLDEPAPGAAADGGARWSAGPAPGLEGGPRDPGPSAPPPRSGPRGQLASPDAPGPGPRSEAPLPELDPLFSWTEEPEECGPASCPESAPFRLQGSSSSHRARGEVDVFSPFPAPTAGELALEQGPGSPPQPSDLSQTHPLPSEPVGSQEDGPRLRAVFDALDGDGDGFVRIEDFIQFATVYGAEQVKDLTKYLDPSGLGVISFEDFYQGITAIRNGDPDGQCYGGVASAQDEEPLACPDEFDDFVTYEANEVTDSAYMGSESTYSECETFTDEDTSTLVHPELQPEGDADSAGGSAVPSECLDAMEEPDHGALLLLPGRPHPHGQSVITVIGGEEHFEDYGEGSEAELSPETLCNGQLGCSDPAFLTPSPTKRLSSKKVARYLHQSGALTMEALEDPSPELMEGPEEDIADKVVFLERRVLELEKDTAATGEQHSRLRQENLQLVHRANALEEQLKEQELRACEMVLEETRRQKELLCKMEREKSIEIENLQTRLQQLDEENSELRSCTPCLKANIERLEEEKQKLLDEIESLTLRLSEEQENKRRMGDRLSHERHQFQRDKEATQELIEDLRKQLEHLQLLKLEAEQRRGRSSSMGLQEYHSRARESELEQEVRRLKQDNRNLKEQNEELNGQIITLSIQGAKSLFSTAFSESLAAEISSVSRDELMEAIQKQEEINFRLQDYIDRIIVAIMETNPSILEVK

Variants of: B1
Conditions: with rb11a_human RAB11A

| Variant | effect of a mutation on the interaction |
| --- | --- |
| D739A | disrupting interaction strength |
| M746S | disrupting interaction strength |
| E747A | decreasing interaction strength |
| Y737S | disrupting interaction strength |
